Values joined by “and” are separate entries in the source; they are usually repeats but may differ in a detail not shown here. Identical values can stand only once. “Also recorded” adds a separate entry of the source. Blank lines part the entries; values can stand above or below the molecule they belong to. Square brackets hold non-standard residues; d marks the D form. Ends that are not written are not given here. sY = N[C@@H](Cc1ccc(OS(=O)(=O)O)cc1)C(=O)O
Tests used:
[1] = target: B-domain deleted FVIII (N8, turoctocog alfa) (UniProt P00451); assay: ITC; MicroCal iTC200, 25 °C, 19 injections (first 0.4 uL, the rest 2 uL), 120 s between injections; who was in the syringe and the concentrations not given
[2] = test system: VWF TIL’E’ R816W; assay: NMR 15N-1H HSQC of VWF TIL’E’ R816W with FVIII a3sTyr1664-sTyr1680; type: binding; conditions: five molar excess of peptide, 298 K
Protocol: All NMR spectra were recorded at 298 K on Bruker Avance III 700 MHz or Bruker Avance III HD 800 MHz spectrometers equipped with cryoprobes. NMR samples consisted of 10–300 μM isotope labeled TIL’E’ in 10 mM HEPES 300 mM NaCl 5 mM CaCl2 5% D2O pH 7.3.
Two-dimensional ^15N-^1H heteronuclear single quantum correlation (HSQC) spectra ([39]) were recorded with 3-9-19 Watergate, whereas two-dimensional methyl–transverse relaxation optimized spectroscopy (TROSY) experiments were recorded using the standard heteronuclear multiple quantum coherence pulse scheme ([40]).
Arg816 is located in the VWF TIL’ β3-β4 sheet ([31]), where the largest chemical shift changes were observed (Figs. 2 and 3). […] However, the most affected residues are located far from each other on the three-dimensional structure of VWF TIL’E’.

[3] = test system: TIL’E’; assay: ITC of FVIII a3 peptides with TIL’E’; type: binding; conditions: 25°C, higher concentrations not feasible due to solubility
Protocol: (§1) ITC experiments were performed on a MicroCal iTC200 (Malvern Instruments, Malvern, UK) at 25°C. All experiments were performed with a total of 19 injections (the first injection 0.4 μL, the rest 2 μL), with 120 s between each injection and an initial delay of 60 s. The reference power was set to 6 μcal/s, and the syringe was stirred at 750 or 1000 Rpm depending on the specifications of the syringe. The concentrations of proteins used are specified in the figure legends.

[4] = test system: FVIII; conditions: full-length VWF R816W; cited from earlier work
Source text: Arg816 is located in the VWF TIL’ β3-β4 sheet ([31]), where the largest chemical shift changes were observed (Figs. 2 and 3).

[5] = test system: FVIII; assay: ITC of VWF TIL’E’ constructs and mutants with FVIII; type: binding; conditions: 25°C; for N: ITC stoichiometry
Protocol: as §1

[6] = target: T1, VWF TIL’E’ (construct 1, residues 764–865 of VWF) (UniProt P04275 764-865); assay: NMR titration; 15N-1H HSQC of 100 uM 15N-labelled VWF TIL’E’ free and with ~500 uM (five molar excess) unlabelled FVIII a3 peptide; 298 K; 10 mM HEPES 300 mM NaCl 5 mM CaCl2 5% D2O pH 7.3; saturation not reached, upper bound of Kd from chemical shift changes; conditions: both partners purified
T1 construct: von Willebrand factor, TIL’E’ domains, residues 764-865; mature VWF starts at Ser764; enterokinase site GTDDDDK immediately before residue 764; every result printed for plain 'VWF TIL’E’' is written on this molecule; Uniformly 15N-labelled or ILV-13CH3/2H-labelled in the NMR experiments; also called wild-type VWF TIL’E’; source: thioredoxin and His6 tag cut off with enterokinase; not shown: …

[7] = ITC, three independent ITC experiments

Kd [1]: 0.75 µM
Molecule: VWF TIL’E’-ALA-HPC4 expressed in HKB11 cell line (construct 4) (domain or fragment)

binding to TIL’E’ by ITC (in words) [3]: no high-affinity binding
Molecule: CC[C@H](C)[C@H](NC(=O)[C@H](CC(=O)O)NC(=O)[C@H](Cc1ccccc1)NC(=O)[C@H](CC(=O)O)NC(=O)[C@H](CCC(=O)O)NC(=O)[C@H](CCCCN)NC(=O)[C@H](CCCCN)NC(=O)[C@H](CCSC)NC(=O)[C@H](CCC(=O)O)NC(=O)[C@@H](NC(=O)[C@H](CO)NC(=O)[C@@H](NC(=O)[C@@H](NC(=O)[C@H](CC(=O)O)NC(=O)[C@H](CC(=O)O)NC(=O)[C@H](Cc1ccc(OS(=O)(=O)O)cc1)NC(=O)[C@H](CC(=O)O)NC(=O)[C@@H](NC(=O)[C@H](CCC(=O)O)NC(=O)[C@H](CCC(=O)O)NC(=O)[C@H](CCC(N)=O)NC(=O)[C@H](CC(=O)O)NC(=O)[C@H](CO)NC(=O)[C@H](CCC(N)=O)NC(=O)[C@H](CC(C)C)NC(=O)[C@@H](NC(=O)[C@@H](NC(=O)[C@H](CCCNC(=N)N)NC(=O)[C@@H](NC(=O)[C@@H](NC(=O)[C@@H](N)CCC(=O)O)[C@@H](C)CC)[C@@H](C)O)[C@@H](C)O)[C@@H](C)O)[C@@H](C)CC)[C@@H](C)O)[C@@H](C)CC)C(C)C)C(=O)N[C@@H](Cc1ccc(OS(=O)(=O)O)cc1)C(=O)N[C@@H](CC(=O)O)C(=O)N[C@@H](CCC(=O)O)C(=O)N[C@@H](CC(=O)O)C(=O)N[C@@H](CCC(=O)O)C(=O)N[C@@H](CC(N)=O)C(=O)N[C@@H](CCC(N)=O)C(=O)N[C@@H](CO)C(=O)N1CCC[C@H]1C(=O)N[C@@H](CCCNC(=N)N)C(=O)O [a3sTyr1664-sTyr1680]
effect of R816W on affinity between FVIII a3 and VWF TIL’E’ [2]: decreases the affinity

Kd [1]: 0.64 µM
Molecule: VWF TIL’E’-ALA-HPC4 (construct 3, residues 764–865 with C-terminal HPC4 tag), from E. coli (from UniProt P04275 764-865) (domain or fragment)

Kd [1]: 7.2 µM
dH [1]: -7.5 kcal/mol
stoichiometry N [1]: 1.29
Molecule: VWF TIL’E’ R854Q (in the construct 1 background) (from UniProt P04275 764-865) (domain or fragment)

Kd [1]: 25 µM
Molecule: VWF TIL’E’ R854K (in the construct 1 background) (from UniProt P04275 764-865) (domain or fragment)

binding to FVIII by ITC (in words) ([5]; ITC): micromolar interaction
Kd [5, 7]: 0.7 µM and 0.71 µM
B2: VWF TIL’E’: residues 764–865 of VWF; constructs 1 and 3 used interchangeably (protein)
chain: SLSCRPPMVKLVCPADNLRAEGLECTKTCQNYDLECMSMGCVSGCLCPPGMVRHENRCVALERCPCFHQGKEYAPGETVKIGCNTCVCQDRKWNCTDHVCDA
modifications: left off: thioredoxin, N-terminal, cleaved | His6, N-terminal, cleaved
notes: residues 764–865 of VWF; constructs 1 and 3 used interchangeably
N ([5]; three independent ITC experiments): 1.0 ± 0.3
ΔH [5, 7]: -12.0 ± 1.3 kcal/mol

The remaining lines, values behind:

Molecule: VWF TIL’E’ (construct 1, residues 764–865 of VWF) (from UniProt P04275 764-865) (domain or fragment)
Kd [1]: 0.71 µM
dH [1]: -12 kcal/mol
stoichiometry N [1]: 1

Molecule: VWF R816W: full-length VWF R816W, severe VWD type 2N mutation
binding to FVIII in ELISA [4]: does not bind FVIII

B1: VWF GAMG-TIL’E’: four amino acids GAMG followed by residues 766–864 of VWF (protein)
chain: GAMGSCRPPMVKLVCPADNLRAEGLECTKTCQNYDLECMSMGCVSGCLCPPGMVRHENRCVALERCPCFHQGKEYAPGETVKIGCNTCVCQDRKWNCTDHVCD
binding to FVIII by ITC (in words) ([5]; ITC): substantially reduced binding; also recorded: the binding to FVIII had been abrogated; also recorded: unable to bind FVIII with micromolar affinity

Molecule: EITRTTLQSDQEEID[sY]DDTISVEMKKEDFDI[sY]DEDENQSPR [FVIII a3 peptide a3_(sTyr1664-sTyr1680) (residues 1649–1689, Tyr1664 and Tyr1680 sulfated)]
Kd [6]: < 25000 µM

B3: VWF R854Q TIL’E’: VWD type 2N mutation R854Q introduced into the construct 1 background (protein)
chain: SLSCRPPMVKLVCPADNLRAEGLECTKTCQNYDLECMSMGCVSGCLCPPGMVRHENRCVALERCPCFHQGKEYAPGETVKIGCNTCVCQDQKWNCTDHVCDA
modifications: left off: thioredoxin, N-terminal, cleaved | His6, N-terminal, cleaved
notes: VWD type 2N mutation R854Q introduced into the construct 1 background
N ([5]; one run): 1.29 ± 0.03
binding to FVIII by ITC (in words) ([5]; ITC): Weak binding
increase in Kd compared to the wild-type ([5]; ITC): about an order of magnitude
Kd ([5]; ITC, one run): 7.2 ± 0.6 µM
ΔH ([5]; ITC, one run): -7.5 ± 0.2 kcal/mol

B4: R854K: mutation R854K introduced into the construct 1 background (protein)
chain: SLSCRPPMVKLVCPADNLRAEGLECTKTCQNYDLECMSMGCVSGCLCPPGMVRHENRCVALERCPCFHQGKEYAPGETVKIGCNTCVCQDKKWNCTDHVCDA
modifications: left off: thioredoxin, N-terminal, cleaved | His6, N-terminal, cleaved
notes: mutation R854K introduced into the construct 1 background
Kd ([5]; ITC, n not given): 25 ± 20 µM

B5: VWF R816W TIL’E’: VWD type 2N mutation R816W introduced into the construct 3 background (protein)
chain: SLSCRPPMVKLVCPADNLRAEGLECTKTCQNYDLECMSMGCVSGCLCPPGMVWHENRCVALERCPCFHQGKEYAPGETVKIGCNTCVCQDRKWNCTDHVCDA
modifications: left off: His6, N-terminal, cleaved | DsbC, N-terminal, cleaved | HPC4 (…: ALA linker and …), C-terminal, state not stated
notes: VWD type 2N mutation R816W introduced into the construct 3 background
binding to FVIII by ITC (in words) ([5]; ITC, listed as VWF TIL’E R816W): no binding was observed
